Bridges are numbered along the chain shown (N, C = ends). [ ]: non-standard residue; d: D form. Nle = CCCC[C@H](N)C(=O)O; GABA = NCCCC(=O)O; βAla = NCCC(=O)O

B1: SEQ. ID. NO. 4 (peptide)
peptide: Ac-RCALGRVYRPC-NH2
modifications: disulfide 2-11
SMILES: CC(=O)N[C@@H](CCCNC(=N)N)C(=O)N[C@H]1CSSC[C@@H](C(N)=O)NC(=O)[C@@H]2CCCN2C(=O)[C@H](CCCNC(=N)N)NC(=O)[C@H](Cc2ccc(O)cc2)NC(=O)[C@H](C(C)C)NC(=O)[C@H](CCCNC(=N)N)NC(=O)CNC(=O)[C@H](CC(C)C)NC(=O)[C@H](C)NC1=O
notes: also called Ala^8
B2: SEQ. ID. NO. 23 (peptide)
peptide: Ac-RCMLGAVYRPC-NH2
modifications: disulfide 2-11
SMILES: CSCC[C@@H]1NC(=O)[C@@H](NC(=O)[C@H](CCCNC(=N)N)NC(C)=O)CSSC[C@@H](C(N)=O)NC(=O)[C@@H]2CCCN2C(=O)[C@H](CCCNC(=N)N)NC(=O)[C@H](Cc2ccc(O)cc2)NC(=O)[C@H](C(C)C)NC(=O)[C@H](C)NC(=O)CNC(=O)[C@H](CC(C)C)NC1=O
notes: also called Ala^11
B3: SEQ. ID. NO. 3 (peptide)
peptide: Ac-CMLGRVYRPC-NH2
modifications: disulfide 1-10; not fully specified
notes: positions numbered as in hMCH; also called ?Arg^6

In one experiment the target is T1, human melanin concentrating hormone type 2 receptor (MCH-2R) (human, UniProt Q969V1 1-340). The experiment in a line: cell-based or functional assay.
T1 sequence (Q969V1 whole entry, form in doubt): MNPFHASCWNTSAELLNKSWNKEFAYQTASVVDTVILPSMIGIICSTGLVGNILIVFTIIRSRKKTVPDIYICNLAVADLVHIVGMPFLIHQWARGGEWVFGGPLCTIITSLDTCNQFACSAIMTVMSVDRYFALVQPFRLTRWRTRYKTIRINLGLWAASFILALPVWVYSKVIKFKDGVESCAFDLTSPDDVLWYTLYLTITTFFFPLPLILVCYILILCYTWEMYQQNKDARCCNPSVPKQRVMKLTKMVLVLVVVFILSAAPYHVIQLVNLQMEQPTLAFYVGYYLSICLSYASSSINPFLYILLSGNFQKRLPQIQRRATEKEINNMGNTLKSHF
In the case of RCMLXRVYRPC (D-Nle^10, also called D-Nle^10) [SEQ. ID. NO. 15], the “Activation % at 10 µM (aequorin functional assay)” value (shortened to “Activation % at 10 µM”) was 78%.

For the molecule B1, the “Activation % at 10 µM” value stood at 104% and the “EC50 (aequorin functional assay)” value came to 12 nM.

Take B2: the “Activation % at 10 µM” value was found to be 36% and the “EC50 (aequorin functional assay)” value was over 1000 nM.

On to Ac-RCML[βAla]RVYRPC-NH2 (disulfide 2-11 (inferred)) [SEQ. ID. NO. 20], for which the “Activation % at 10 µM” value came to 92%.

Turning to RCMLGRVXRPC ((2)Nal^13 ((2')naphthylalanine)) [SEQ. ID. NO. 28], the “Activation % at 10 µM” value amounted to 90% and the “EC50 (aequorin functional assay)” value is 19 nM.

As for RCALXXVYRPC (D-Ala^10, Harg^11 (homoarginine), also called Ala^8, D-Ala^10, Harg^11) [SEQ. ID. NO. 38], the “Activation % at 10 µM” value came out at 49% and the “EC50 (aequorin functional assay)” value turned out to be 730 nM.

As to RCMLGRVXRPC (Cha^13 (2-cyclohexyl-alanine), also called Cha^13) [SEQ. ID. NO. 31], the “Activation % at 10 µM” value was 76%.

As for RCMLGRVXRPC (Phe(pF)^13, also called Phe(pF)^13) [SEQ. ID. NO. 29], the “Activation % at 10 µM” value is 100%.

On to RCMLGRVXRPC (Phe(pNH2)^13) [SEQ. ID. NO. 30], for which the “Activation % at 10 µM” value came out at 70% and the “EC50 (aequorin functional assay)” value was determined as 24 nM.

On to RCMLGRVYRXC (Sar^15 (sarcosine)) [SEQ. ID. NO. 32], for which the “Activation % at 10 µM” value stood at 91% and the “EC50 (aequorin functional assay)” value is 12 nM.

In the case of RCMLXRVYRPC (Nle^10 (norleucine)) [SEQ. ID. NO. 9], the “Activation % at 10 µM” value amounted to 103% and the “EC50 (aequorin functional assay)” value is 16 nM.

On to RCXLGRVYRPC (Nle^8 (norleucine), also called Nle^8) [SEQ. ID. NO. 5], for which the “Activation % at 10 µM” value was 105% and the “EC50 (aequorin functional assay)” value was determined as 12 nM.

Regarding RCMLGRVYRPX (D-Cys^16, also called D-Cys^16) [SEQ. ID. NO. 33], the “Activation % at 10 µM” value turned out to be 90%.

Consider Ac-RCML[GABA]RVYRPC-NH2 (disulfide 2-11 (inferred), also called εAbu^10) [SEQ. ID. NO. 21], for which the “Activation % at 10 µM” value was found to be 112%.

Regarding RCMLXRVYRPC (D-Leu^10) [SEQ. ID. NO. 14], the “Activation % at 10 µM” value was 83%.

Consider B3, for which the “EC50 (aequorin functional assay)” value was determined as 1500 nM.

In the case of RCMLXRVYRPC (Sar^10 (sarcosine)) [SEQ. ID. NO. 6], the “Activation % at 10 µM” value came out at 94% and the “EC50 (aequorin functional assay)” value amounted to 40 nM.

As to RCALXRVYRPC (not fully specified; D-Ala^10, also called Ala^8, D-Ala^10) [SEQ. ID. NO. 35], the “Activation % at 10 µM” value turned out to be 120% and the “EC50 (aequorin functional assay)” value was 140 nM.

Turning to Ac-RCMLG[Nle]VYRPC-NH2 (disulfide 2-11 (inferred), also called Nle^11) [SEQ. ID. NO. 26], the “Activation % at 10 µM” value worked out at 34% and the “EC50 (aequorin functional assay)” value was 58 nM.

For the molecule RCMLGXVYRPC (N-Me-Arg^11) [SEQ. ID. NO. 22], the “Activation % at 10 µM” value is 86%.

The target of the next experiment is T2, human MCH-1R (human, UniProt Q99705 1-353). Kind of experiment: cell-based or functional assay.
T2 sequence (Q99705 whole entry, form in doubt): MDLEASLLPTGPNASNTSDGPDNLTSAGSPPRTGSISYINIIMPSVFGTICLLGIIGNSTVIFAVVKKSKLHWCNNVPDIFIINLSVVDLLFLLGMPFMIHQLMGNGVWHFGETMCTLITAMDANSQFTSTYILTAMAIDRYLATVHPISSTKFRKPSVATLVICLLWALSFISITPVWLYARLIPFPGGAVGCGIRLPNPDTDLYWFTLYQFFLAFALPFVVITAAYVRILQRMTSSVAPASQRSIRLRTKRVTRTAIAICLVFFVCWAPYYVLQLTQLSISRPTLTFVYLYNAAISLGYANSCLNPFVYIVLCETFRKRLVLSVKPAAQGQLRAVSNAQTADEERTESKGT
Take RCMLXRVYRPC (D-Nle^10, also called D-Nle^10) [SEQ. ID. NO. 15]: the “Activation % at 10 µM” value is 33%.

B1: the “Activation % at 10 µM” value was 42% and the “EC50 (aequorin functional assay)” value was 4100 nM.

For B2, the “EC50 (aequorin functional assay)” value is over 10000 nM.

On to Ac-RCML[βAla]RVYRPC-NH2 (disulfide 2-11 (inferred)) [SEQ. ID. NO. 20], for which the “Activation % at 10 µM” value is 3.2% and the “EC50 (aequorin functional assay)” value was over 1000 nM.

Regarding RCMLGRVXRPC ((2)Nal^13 ((2')naphthylalanine)) [SEQ. ID. NO. 28], the “Activation % at 10 µM” value amounted to 105%.

With RCALXXVYRPC (D-Ala^10, Harg^11 (homoarginine), also called Ala^8, D-Ala^10, Harg^11) [SEQ. ID. NO. 38], the “Activation % at 10 µM” value turned out to be 20% and the “EC50 (aequorin functional assay)” value was over 10000 nM.

For the molecule RCMLGRVXRPC (Cha^13 (2-cyclohexyl-alanine), also called Cha^13) [SEQ. ID. NO. 31], the “Activation % at 10 µM” value came out at 93%.

In the case of RCMLGRVXRPC (Phe(pF)^13, also called Phe(pF)^13) [SEQ. ID. NO. 29], the “Activation % at 10 µM” value was 98%.

As to RCMLGRVXRPC (Phe(pNH2)^13) [SEQ. ID. NO. 30], the “Activation % at 10 µM” value was 88%.

Regarding RCMLGRVYRXC (Sar^15 (sarcosine)) [SEQ. ID. NO. 32], the “Activation % at 10 µM” value worked out at 113%.

For the molecule RCMLXRVYRPC (Nle^10 (norleucine)) [SEQ. ID. NO. 9], the “Activation % at 10 µM” value worked out at 106% and the “EC50 (aequorin functional assay)” value turned out to be 15 nM.

As to RCXLGRVYRPC (Nle^8 (norleucine), also called Nle^8) [SEQ. ID. NO. 5], the “Activation % at 10 µM” value was 105%.

In the case of RCMLGRVYRPX (D-Cys^16, also called D-Cys^16) [SEQ. ID. NO. 33], the “Activation % at 10 µM” value came out at 76%.

As to Ac-RCML[GABA]RVYRPC-NH2 (disulfide 2-11 (inferred), also called εAbu^10) [SEQ. ID. NO. 21], the “Activation % at 10 µM” value came out at 101%.

Consider RCMLXRVYRPC (D-Leu^10) [SEQ. ID. NO. 14], for which the “Activation % at 10 µM” value came out at 23%.

Take B3: the “Activation % at 10 µM” value came out at 6.5% and the “EC50 (aequorin functional assay)” value came out at 300 nM.

With RCMLXRVYRPC (Sar^10 (sarcosine)) [SEQ. ID. NO. 6], the “Activation % at 10 µM” value was 95%.

Turning to RCALXRVYRPC (not fully specified; D-Ala^10, also called Ala^8, D-Ala^10) [SEQ. ID. NO. 35], the “EC50 (aequorin functional assay)” value is over 10000 nM.

With Ac-RCMLG[Nle]VYRPC-NH2 (disulfide 2-11 (inferred), also called Nle^11) [SEQ. ID. NO. 26], the “EC50 (aequorin functional assay)” value is over 1000 nM.

Turning to RCMLGXVYRPC (N-Me-Arg^11) [SEQ. ID. NO. 22], the “Activation % at 10 µM” value was 110%.

Another experiment concerns the target T1, human melanin concentrating hormone …. Kind of experiment: SPA competition with [125I]-human MCH (Phe13, Tyr19) on receptor membranes. The procedure:
(§1) For the SPA-based assay, WGA-PVT beads (NEN Life Sciences Products) were resuspended in Dulbecco's PBS with calcium and magnesium (500 mg beads in 4 ml PBS). […] The suspension was mixed gently for 20 minutes, 12.3 ml of assay buffer and protease inhibitors were added (final concentration given): 2 μg/ml leupeptin, 10 μM phosphoramidon, 40 μg/ml bacitracin, 5 μg/ml aprotinin, 0.1 mM Pefabloc.
(§2) Coated beads were kept on ice until use. […] Binding reactions were allowed to proceed at room temperature for 3 hours. Quantitation was performed by scintillation counting (TopCount device).
The term IC50 denotes the point on the concentration scale where inhibition reaches its midpoint. Read a high IC50 as weaker potency. The molecule RCMLXRVYRPC (D-Nle^10, also called D-Nle^10) [SEQ. ID. NO. 15] gave a half-inhibitory concentration (IC50) of 2.3 nM.

B1 gave a 50% inhibitory concentration (IC50) of 18 nM.

For the molecule B2, the concentration for half-maximal inhibition (IC50) is 9.7 nM.

RCMLGRVXRPC (Cha^13 (2-cyclohexyl-alanine), also called Cha^13) [SEQ. ID. NO. 31] yielded a 50% inhibitory concentration (IC50) of 9 nM.

The molecule RCMLGRVYRPX (D-Cys^16, also called D-Cys^16) [SEQ. ID. NO. 33] came in with a concentration for half-maximal inhibition (IC50) of 2.3 nM.

As to B3, the “% @ concentration” value stood at 38.5 % @ 10 µM.

The molecule Ac-RCMLG[Nle]VYRPC-NH2 (disulfide 2-11 (inferred), also called Nle^11) [SEQ. ID. NO. 26] came in with an IC50 of 9 nM.

The target in another experiment is T2, human MCH-1R. The description is as above. The method, then:
as §1, §2
B1: the half-inhibitory concentration (IC50) is 15 nM.

As to RCALXXVYRPC (D-Ala^10, Harg^11 (homoarginine), also called Ala^8, D-Ala^10, Harg^11) [SEQ. ID. NO. 38], the “% @ concentration” value stood at 83 % @ 10 µM.

The molecule RCMLGRVXRPC (Phe(pF)^13, also called Phe(pF)^13) [SEQ. ID. NO. 29] showed a 50% inhibitory concentration (IC50) of 0.6 nM.

Molecule RCXLGRVYRPC (Nle^8 (norleucine), also called Nle^8) [SEQ. ID. NO. 5] displayed a 50% inhibitory concentration (IC50) of 0.5 nM.

Consider Ac-RCML[GABA]RVYRPC-NH2 (disulfide 2-11 (inferred), also called εAbu^10) [SEQ. ID. NO. 21], for which the half-maximal inhibitory concentration (IC50) was 2.1 nM.

In the case of B3, the 50% inhibitory concentration (IC50) is 1.6 nM.

As for RCALXRVYRPC (not fully specified; D-Ala^10, also called Ala^8, D-Ala^10) [SEQ. ID. NO. 35], the “% @ concentration” value worked out at 70 % @ 1 µM.

For Ac-RCMLG[Nle]VYRPC-NH2 (disulfide 2-11 (inferred), also called Nle^11) [SEQ. ID. NO. 26], the IC50 stood at 301 nM.

The values above are taken from US20040147432A1 (MERCK, published 2004).
